The target in assay [1] is SARS-CoV-2 RBD sortase A conjugated nanoparticle (RBD-scNP) (SARS-CoV-2, Wuhan strain (RBD moiety), UniProt P0DTC2). Briefly: BLI. On the technique in general: In BLI a coated tip is dipped into the sample, and binding shifts an interference pattern.
Assay [2] concerns the target monomeric SARS-CoV-2 receptor binding domain (RBD) (SARS-CoV-2, UniProt P0DTC2). As to the kind of experiment: SPR. On the technique in general: SPR reads the build-up and loss of mass on a sensor chip optically.

As usually defined, the Kd is the constant that tells how readily two partners part at equilibrium. Read a low Kd as higher affinity.

B1: DH1041 (ACE2 binding site-targeting RBD neutralizing antibody) (antibody, V domains shown)
VH: EVQLVESGGGLVQPGGSLRLSCAASGVTFSSYWMSWVRQAPGKGLEWVANIRQDGSEKYSVDSVKGRFTISRDNAKNSLYLQMNSLRAEDTAVYYCARARRADNSGYYGFHFDCWGQGTLVTVSS
VL: QSVLTQPPSVSGAPGQRVTISCTGSSSNIGAGYDVHWYQQLPGTAPKLLIYGNNNRPSGVPDRFSDSKSGTSASLAITRLQAEDEADYYCQSYDSSLSGWVFGGGTKLTVL
As to B1, the binding result in assay [1] was “binds”.

B2: DH1047 antigen binding fragment (Fab) (Fab, V domains shown)
VH: QVQLVQSGAEVKKPGASVQVSCQASANTFTNHYIHWVRQAPGQGLEWMGIIYPTGGNTIYAQGFQGRVTMTRDTSLNTIYLELSSLRSEDTAVYYCARDVRVDDSWSGYDLLSGGTYFDYWGQGTLVTVSS
VL: not shown
As for B2, in assay [2], the dissociation constant Kd is under 0.02 nM.

These data come from publication doi:10.1101/2021.02.17.431492 (bioRxiv, 2021).
